# Reference: US20260008818A1, “CYCLIC PEPTIDE OR SALT THEREOF, AND USES THEREOF” (FUJIFILM Corporation, priority 2023, published 2026)
# Bridge positions count the residues as written; N and C are the ends. Ends that are not written are not given here. COCH2 = acetyl group that carries the bridge
# T1: Recombinant Human FGFR1 alpha (IIIc) Fc Chimera Protein, CF (R&D systems, 658-FR-050) (human, UniProt P11362 22-376)
# T1 construct: bought reagent; not shown: Fc of the bought chimera
# T1 sequence (looked up): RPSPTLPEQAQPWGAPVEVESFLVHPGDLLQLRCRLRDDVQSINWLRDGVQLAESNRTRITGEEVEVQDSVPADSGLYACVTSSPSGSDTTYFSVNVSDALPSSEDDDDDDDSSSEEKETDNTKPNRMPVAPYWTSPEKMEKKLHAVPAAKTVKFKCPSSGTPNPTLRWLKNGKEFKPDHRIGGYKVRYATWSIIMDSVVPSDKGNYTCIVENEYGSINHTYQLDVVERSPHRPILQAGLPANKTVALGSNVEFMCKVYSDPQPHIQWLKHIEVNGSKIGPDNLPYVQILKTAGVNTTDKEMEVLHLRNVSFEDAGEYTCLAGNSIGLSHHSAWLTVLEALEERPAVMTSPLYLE
# T2: FGFR3 Protein, Human, Recombinant (ECD, His Tag) (Sino Biological, 16044-H08H) (human, UniProt P22607 23-375)
# T2 construct: extracellular domain; bought reagent; not shown: His tag
# T2 sequence (looked up): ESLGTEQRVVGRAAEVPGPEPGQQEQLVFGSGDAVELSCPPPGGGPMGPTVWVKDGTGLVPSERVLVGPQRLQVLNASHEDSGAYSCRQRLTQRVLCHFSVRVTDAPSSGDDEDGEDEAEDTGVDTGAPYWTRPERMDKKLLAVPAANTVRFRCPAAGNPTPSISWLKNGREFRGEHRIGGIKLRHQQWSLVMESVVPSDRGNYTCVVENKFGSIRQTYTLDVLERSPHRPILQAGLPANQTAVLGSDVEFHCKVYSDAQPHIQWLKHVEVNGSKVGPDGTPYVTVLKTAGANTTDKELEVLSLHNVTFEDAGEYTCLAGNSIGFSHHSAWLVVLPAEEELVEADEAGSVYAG
# T3: FGFR1 Protein, Human, Recombinant (His Tag) (Sino Biological, 10616-H08H) (human, UniProt P11362 22-376)
# T3 construct: bought reagent; not shown: His tag
# T3 sequence (looked up): T1 sequence (looked up)
# T4: FGFR4 Protein, Human, Recombinant (His Tag) (Sino Biological, 10538-H08H) (human, UniProt P22455 22-369)
# T4 construct: bought reagent; not shown: His tag
# T4 sequence (looked up): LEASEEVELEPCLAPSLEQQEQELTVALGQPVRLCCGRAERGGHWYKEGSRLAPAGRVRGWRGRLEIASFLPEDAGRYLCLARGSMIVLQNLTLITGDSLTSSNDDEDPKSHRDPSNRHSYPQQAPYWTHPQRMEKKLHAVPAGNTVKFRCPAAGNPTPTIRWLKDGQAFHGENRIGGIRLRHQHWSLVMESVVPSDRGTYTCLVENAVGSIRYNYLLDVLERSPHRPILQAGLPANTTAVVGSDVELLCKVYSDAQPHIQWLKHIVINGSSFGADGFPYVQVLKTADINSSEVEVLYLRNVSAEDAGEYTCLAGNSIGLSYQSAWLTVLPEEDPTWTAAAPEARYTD
# B1: SEQ ID NO: 382 (peptide)
# peptide: HCSYERLQFHGHEAPFRVK(COCH2)VKKK
# modifications: thioether 2-19; also: acetyl defined on Orn side-chain amine, here on K
# notes: chemically synthesized
# Columns and labels:
# [1] = molecular target: T1, Recombinant Human FGFR1 alpha (IIIc) Fc …; test: SPR, FGFR1-Fc immobilized, 10 nmol/L peptide
# Description: (§1) A CM5 sensor chip (Cytiva, 29149603) was set in Biacore-T200 (manufactured by Cytiva) which is a surface plasmon resonance device, and an HBS-EP buffer (Cytiva, BR100826) was added as a running buffer at a flow rate of 10 μL/min to equilibrate the flow channel. Next, 70 μL of a mixed aqueous solution of 0.2 mol/L 1-(3-dimethylaminopropyl)-3-ethylcarbodiimide (EDC) and 0.05 mol/L N-hydroxysuccinimide (NHS) was added to activate the sensor chip. Then, Recombinant Human FGFR 1 alpha (IIIc) Fc Chimera Protein CF (R&D systems, 658-FR-050) prepared at 50 nmol/L in an Acetate 4.5 buffer (Cytiva, BR100350) was added thereto to perform immobilization at about 5000 RU. Thereafter, the blocking treatment was performed with an ethanolamine solution. In addition, in another flow channel of the same sensor chip, blocking treatment was performed immediately after activation without immobilizing FGFR.
# A cyclic peptide diluted to 10 nmol/L using HBS-EP was added to each flow channel of the FGFR-immobilized sensor chip produced above at 25° C. for 10 minutes, then HBS-EP was allowed to flow as a running buffer for 30 minutes, and the binding of the cyclic peptide to FGFR was measured. Thereafter, a regeneration treatment of removing the bound cyclic peptide was performed by repeating the flow of a regeneration liquid in which sodium chloride powder was dissolved in Glysine 1.5 (Cytiva, BR100354) to a final concentration of 0.15 mol/L for 1 minute in each flow channel twice. The binding amount of the cyclic peptide was evaluated from the difference between the measured value of Biacore-T200 in the flow channel in which FGFR was immobilized and the measured value of Biacore-T200 in the flow channel in which FGFR was not immobilated, in a case where a 10 nmol/L cyclic peptide was allowed to flow.
# [2] = molecular target: T2, FGFR3 Protein, Human, Recombinant (ECD, …); test: SPR, peptide immobilized, 1 umol/L FGFR
# Description: as §1, with “a cyclic peptide” for “Recombinant Human FGFR 1 alpha (IIIc) Fc Chimera Protein CF (R&D systems, 658-FR-050)”, “to 2 mg/mL” for “at 50 nmol/L”, “HBS-EP” for “an Acetate 4.5”, “buffer” for “buffer (Cytiva, BR100350)”, “200” for “5000”
# (§2) After various FGFRs (FGFR1 Protein, Human, Recombinant (His Tag) (Sino Biological, 10616-H08H), FGFR3 Protein, Human, Recombinant (ECD, His Tag) (Sino Biological, 16044-H08H), FGFR4 Protein, Human, Recombinant (His Tag) (Sino Biological, 10538-H08H)) diluted with HBS-EP to 1 μmol/L at 25° C. was added to each flow channel of the cyclic peptide-immobilized sensor chip prepared above, for 10 minutes, HBS-EP was allowed to flow as a running buffer for 30 minutes, and the binding of various FGFRs to the cyclic peptide was measured. […] The binding amount of the cyclic peptide was evaluated from the difference between the measured value of Biacore-T200 in the flow channel in which the cyclic peptide was immobilized and the measured value of Biacore-T200 in the flow channel in which the cyclic peptide was not immobilized, in a case where 1 μmol/L FGFR was allowed to flow.
# (§3) The binding amount of FGFR evaluated above was normalized to the binding amount of FGFR molecules per one molecule of the cyclic peptide using the molecular weights of the cyclic peptide and FGFR, and the binding affinity to FGFR was evaluated according to the following evaluation criteria.
# [3] = molecular target: T3, FGFR1 Protein, Human, Recombinant (His …); test: SPR, peptide immobilized, 1 umol/L FGFR
# Description: as §1, with “a cyclic peptide” for “Recombinant Human FGFR 1 alpha (IIIc) Fc Chimera Protein CF (R&D systems, 658-FR-050)”, “to 2 mg/mL” for “at 50 nmol/L”, “HBS-EP” for “an Acetate 4.5”, “buffer” for “buffer (Cytiva, BR100350)”, “200” for “5000”
# as §2, §3
# [4] = molecular target: T4, FGFR4 Protein, Human, Recombinant (His …); test: SPR, peptide immobilized, 1 umol/L FGFR
# Description: as §1, with “a cyclic peptide” for “Recombinant Human FGFR 1 alpha (IIIc) Fc Chimera Protein CF (R&D systems, 658-FR-050)”, “to 2 mg/mL” for “at 50 nmol/L”, “HBS-EP” for “an Acetate 4.5”, “buffer” for “buffer (Cytiva, BR100350)”, “200” for “5000”
# as §2, §3
binder,measurement,setting,value
B1,"binding amount (SPR, cyclic peptide molecules bound per one molecule of FGFR at 10 nmol/L peptide)",[1],≥ 0.7 moleculesofthecyclicpeptide/onemoleculeoffgfr
same,"binding amount (SPR, FGFR molecules bound per molecule of cyclic peptide at 1 umol/L FGFR)",[2],0.01 to 0.05 moleculesoffgfr/onemoleculeofthecyclicpeptide
same,"binding amount (SPR, FGFR molecules bound per molecule of cyclic peptide at 1 umol/L FGFR)",[3],≥ 0.05 moleculesoffgfr/onemoleculeofthecyclicpeptide
same,"binding amount (SPR, FGFR molecules bound per molecule of cyclic peptide at 1 umol/L FGFR)",[4],≥ 0.05 moleculesoffgfr/onemoleculeofthecyclicpeptide
